Source: patent US20240360203A1 (GENERATE BIOMEDICINES, published 2024)
Like-named read-outs stand apart in the source and are kept apart here.

Columns and labels:
Test in all cases: cell-based or functional assay
[1] = molecular target: T1, SARS-CoV-2 Delta Spike on pseudovirus (SARS-CoV-2, UniProt P0DTC2 14-1273)
[2] = molecular target: T2, SARS-CoV-2 BA.1 Spike on pseudovirus (SARS-CoV-2, UniProt P0DTC2 14-1273)
[3] = molecular target: T3, SARS-CoV-2 BA.2 Spike on pseudovirus (SARS-CoV-2, UniProt P0DTC2 14-1273)
[4] = molecular target: T4, SARS-CoV-2 BA.2.12.1 Spike on pseudovirus (SARS-CoV-2, UniProt P0DTC2 14-1273)
[5] = molecular target: T5, SARS-CoV-2 BA.4/5 Spike on pseudovirus (SARS-CoV-2, UniProt P0DTC2 14-1273)
[6] = molecular target: T1, SARS-CoV-2 Delta Spike on pseudovirus; remark: listed apart in the source
[7] = molecular target: T2, SARS-CoV-2 BA.1 Spike on pseudovirus; remark: listed apart in the source
[8] = molecular target: T3, SARS-CoV-2 BA.2 Spike on pseudovirus; remark: listed apart in the source
[9] = molecular target: T4, SARS-CoV-2 BA.2.12.1 Spike on …; remark: listed apart in the source
[10] = molecular target: T5, SARS-CoV-2 BA.4/5 Spike on pseudovirus; remark: listed apart in the source
[11] = molecular target: T5, SARS-CoV-2 BA.4/5 Spike on pseudovirus; remark: listed apart in the source
[12] = molecular target: T1, SARS-CoV-2 Delta Spike on pseudovirus; remark: listed apart in the source
[13] = molecular target: T3, SARS-CoV-2 BA.2 Spike on pseudovirus; remark: listed apart in the source
[14] = molecular target: T5, SARS-CoV-2 BA.4/5 Spike on pseudovirus; remark: listed apart in the source
[15] = molecular target: T4, SARS-CoV-2 BA.2.12.1 Spike on …; remark: listed apart in the source

Row | Binder | % neutralization at 4.5 µg/ml, pseudovirus [1] | % neutralization at 4.5 µg/ml, pseudovirus [2] | % neutralization at 4.5 µg/ml, pseudovirus [3] | % neutralization at 4.5 µg/ml, pseudovirus [4] | % neutralization at 4.5 µg/ml, pseudovirus [5] | IC50, pseudovirus neutralization [6] | IC50, pseudovirus neutralization [7] | IC50, pseudovirus neutralization [8] | IC50, pseudovirus neutralization [9] | IC50, pseudovirus neutralization [10] | IC50, pseudovirus neutralization [11] | IC50, pseudovirus neutralization [12] | IC50, pseudovirus neutralization [13] | IC50, pseudovirus neutralization [14] | IC50, pseudovirus neutralization [15]
1 | AB-1 (antibody, V domains shown) VH: EVQLVESGAEVKKPGESLKISCKGSGYTFTRYWIGWVRQMPGKGLEWMGIIYPGDSDVRYSPSFQGHVTISADKSISTAYLQWNSLKASDTAMYYCARLPQYCSKGVCYRWFDPWGQGTLVTVSS VL: EIVLTQSPSSVSASVGDRVTITCRASQGISSWLAWYQQKPGKAPKLLIYAASSLQSGVPSRFSGSGSGTDFTLTISSLQPEDFATYYCQQGHSFPYTFGQGTNLEIK | 99.5% | 96.5% | 89.9% | 89.2% | 90.4% | 0.0139 µg/mL | 0.0088 µg/mL | 0.0219 µg/mL | 0.0133 µg/mL | 0.0278 µg/mL | 0.0101 µg/mL | 0.034 µg/mL | 0.031 µg/mL | 0.075 µg/mL | 
2 | Reference Antibody (antibody, V domains shown) VH: EVQLVESGAEVKKPGESLKISCKGSGYTFTRYWIGWVRQMPGKGLEWMGIIYPGDSDTRYSPSFQGHVTISADKSISTAYLQWNSLKASDTAMYYCARLPQYCSNGVCQRWFDPWGQGTLVTVSS VL: EIVLTQSPSSVSASVGDRVTITCRASQGISSWLAWYQQKPGKAPKLLIYAASSLQSGVPSRFSGSGSGTDFTLTISSLQPEDFATYYCQQGNSFPYTFGQGTNLEIK | 93.9% | 91.9% | 74.5% |  | 74.4% | 0.0681 µg/mL | 0.0261 µg/mL | 0.0941 µg/mL | 0.0307 µg/mL | 0.0314 µg/mL |  | 0.256 µg/mL | 1.25 µg/mL | 0.634 µg/mL | 0.337 µg/mL
